Key:
ULP1 SUMO protease = molecular target: T1, ULP1 SUMO protease (Saccharomyces cerevisiae, UniProt Q02724); experiment: In vitro GPATase activity assay (coupled GDH assay) of fusion -/+ Ulp1; assay type: biochemical, yeast
T1 construct: treatment with the yeast ULP1 protein (SUMO protease catalytic domain)
T1 sequence (Q02724 432-621 limits assumed): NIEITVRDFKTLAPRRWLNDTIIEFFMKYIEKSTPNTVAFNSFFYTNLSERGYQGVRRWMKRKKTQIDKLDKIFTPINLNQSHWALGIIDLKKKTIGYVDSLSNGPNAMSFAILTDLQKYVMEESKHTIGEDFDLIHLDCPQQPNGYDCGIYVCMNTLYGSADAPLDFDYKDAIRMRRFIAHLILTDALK
From the text: GPATase, a glutaminase enzyme, hydrolizes 5-phospho ribosyl pyrophosphate (PRPP) […], 5-phosphoribosyl-(b)1-amine (PRA) and pyrophosphate (PPi). This glutaminase reaction was monitored by measuring the production of glutamate by means of a coupled glutamate dehydrogenase (GDH) assay under standard reaction conditions described by Messenger and Zalkin (1979).
[…]
The coupled GDH assay employed to assess GPATase activity was examined for accuracy. Increasing amounts of the purified SUMO-GPATase fusion protein, either untreated or cleaved by the ULP1 SUMO protease, were incubated in the presence of glutamine and PRPP for a fixed period of time, and the completed reaction was then used as substrate in a GDH assay. […] This is particularly so at enzyme concentrations of 1 μg or less. Thus, the amount of NAD^+ reduced in the GDH reaction directly correlates with the amount of active GPATase enzyme in the initial reaction. In addition, treatment with ULP1 results in at least a 10-fold increase in the glutaminase activity of GPATase, despite the fact that only partial cleavage of SUMO-GPATase has been observed thus far.

[1] = molecular target: T2, yeast ULP1 protein (SUMO protease catalytic domain) (Saccharomyces cerevisiae, UniProt Q02724); experiment: Cleavage of SUMO-GPATase by yeast ULP1 (SDS-PAGE); assay type: biochemical; details: 3 hours
T2 construct: treatment with the yeast ULP1 protein (SUMO protease catalytic domain)
T2 sequence (Q02724 432-621 limits assumed): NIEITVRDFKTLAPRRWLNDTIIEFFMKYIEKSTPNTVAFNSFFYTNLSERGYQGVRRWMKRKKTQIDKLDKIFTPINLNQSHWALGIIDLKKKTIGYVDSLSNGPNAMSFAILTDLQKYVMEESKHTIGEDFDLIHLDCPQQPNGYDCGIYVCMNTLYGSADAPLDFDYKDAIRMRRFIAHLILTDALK
Procedure: The SUMO protein was cleaved from a SUMO-GPATase fusion protein by treatment with the yeast ULP1 protein (SUMO protease catalytic domain). Approximately 5 μg SUMO-GPATase were incubated at 30° C. for 3 hours with increasing concentrations of the ULP1 enzyme in a reaction mixture containing 50 mM Tris-HCl pH 7.5, 1 mM EDTA, 10 mM DTT. The reaction was quenched by addition of SDS-PAGE sample buffer, heated, and loaded directly on a 12% SDS-polyacrylamide gel, and electrophoresed. After electrophoresis, the gel was stained to visualize the proteins. […] This inability of the ULP1 enzyme to cut the fusion protein may reflect the occurrence of steric hindrance around the cleavage site, or some partial modification of the junction sequence, e.g. oxidation of the Cysteine residue at the amino-terminal end of GPATase.

B1: SUMO-GPATase: Fusion of SUMO (Smt3) C-terminal Gly-Gly to mature E. coli glutamine phosphoribosylpyrophosphate amidotransferase N-terminus (protein)
chain: CGIVGIAGVMPVNQSIYDALTVLQHRGQDAAGIITIDANNCFRLRKANGLVSDVFEARHMQRLQGNMGIGHVRYPTAGSSSASEAQPFYVNSPYGITLAHNGNLTNAHELRKKLFEEKRRHINTTSDSEILLNIFASELDNFRHYPLEADNIFAAIAATNRLIRGAYACVAMIIGHGMVAFRDPNGIRPLVLGKRDIDENRTEYMVASESVALDTLGFDFLRDVAPGEAIYITEEGQLFTRQCADNPVSNPCLFEYVYFARPDSFIDKISVYSARVNMGTKLGEKIAREWEDLDIDVVIPIPETSCDIALEIARILGKPYRQGFVKNRYVGRTFIMPGQQLRRKSVRRKLNANRAEFRDKNVLLVDDSIVRGTTSEQIIEMAREAGAKKVYLASAAPEIRFPNVYGIDMPSATELIAHGREVDEIRQIIGADGLIFQDLNDLIDAVRAENPDIQQFECSVFNGVYVTKDVDQGYLDFLDTLRNDDAKAVQRQNEVENLEMHNEG
modifications: left off: large carriers
notes: Fusion of SUMO (Smt3) C-terminal Gly-Gly to mature E. coli glutamine phosphoribosylpyrophosphate amidotransferase N-terminus
For B1, the “increase in the glutaminase activity of GPATase on treatment with ULP1” value (ULP1 SUMO protease; ULP1-cleaved vs untreated fusion, only partial cleavage) was ≥ 10 fold, the “absorbance at OD 363 in GDH assay (GPATase activity)” value (ULP1 SUMO protease; absence of Ulp1) was “this increase of absorbance did not occur” and the “absorbance at OD 363 in GDH assay (GPATase activity)” value (ULP1 SUMO protease; fusion incubated 30 minutes with Ulp1) was “an increase is absorbance”. The “amount of Ulp1 at which cleavage of the fusion was demonstrated” value ([1]; approx. 5 μg SUMO-GPATase, 30° C.) was 0.009 units and the completeness of cleavage ([1]; with as much as 78.3 Units Ulp1, 30° C.) was “cleavage was never fully achieved”.
